Common to all, as to test: BLI
Test [1] has as its target recombinant HA protein of A/Aichi/2/1968 (H3N2) (influenza A virus A/Aichi/2/1968 (H3N2)) (UniProt P03437).
Test [2] has as its target recombinant HA protein of A/Beijing/262/1995 (H1N1) (influenza A virus A/Beijing/262/1995 (H1N1)).
Test [3] has as its target recombinant HA protein of A/Hong Kong/45/2019 (H3N2) (influenza A virus A/Hong Kong/45/2019 (H3N2)).
Test [4] addresses recombinant HA protein of A/New Caledonia/20/1999 (H1N1) (influenza A virus A/New Caledonia/20/1999 (H1N1)).

The values that follow come from PMC12041195.

For “IgM-F045-092 (from UniProt P01591 23-159) (antibody)”, the Kd in test [1], in test [2], in test [3] and in test [4] was below 1 pM each time.

As to IgG-F045-092 (antibody), in test [3], the dissociation constant (Kd) turned out to be 12500 pM.

In general, Kd refers to the equilibrium constant for the complex coming apart.
